Measurements taken from US10106577B2, “Agonists of neurotrophin receptors and their use as medicaments” (BIONURE FARMA, S.L., priority 2010, dated 2018).

Key:
JNK = test: Luminex signalling assay in SH-SY5Y; assay type: cell-based, human; conditions: G79 100 ng/ml and 20 μg/ml, BDNF 20 ng/ml; 30 min, 1 h, 2 h, 6 h
From the text: (§1) The human neuroblastoma cell line SH-SY5Y was used to perform Luminex signalling assays using the 10-Plex MAPK/SAPK Signaling Kit-Phosphoprotein (Millipore). This cell line expresses the TrkB receptor and the MAPK/SAPK signalling pathway is typically activated by the tyrosinkinase receptors. The phosphoprotein antibodies included into the kit are the following: ERK/MAP kinase (Thr185/Tyr187); STAT-1 (Tyr701); JNK (Thr183/Tyr185); MEK-1 (Ser212); ATF-2 (Thr69/71); p53 (Ser15); HSP27 (Ser78); c-Jun (Ser73); p38 (Thr180/Tyr182), p70 S6 kinase (Thr412); IkBα (Ser32) (purchased from Millipore).
(§2) The cells were propagated and then seeded into 24-well plates (30.000 cell/well). After 24 hours, the cells were treated with two different concentrations of NGF-receptor agonist G79: 100 ng/ml and 20 μg/ml. After adding G79 into the medium, the cells were collected in the lysis buffer of the kit at the following time points: 30 min, 1 h, 2 h, and 6 h. The assay was performed in this way to assess both time and dose effects comparing the treated samples with the untreated cells used as negative controls (unstimulated SH-SY5Y cells). BDNF was used as positive control at the concentration 20 ng/ml, which is the best working concentration known in literature. In the Luminex plate, each sample was added into a well in duplicate. After adding all the samples, the specific positive and negative controls of phosphorilation, included in the Luminex kit, were added. The assay buffer was also added in duplicate, as a background controls.
(§3) In the circles are the activated factors, while in the grey circles are the tested factors. Its effects of the SY-SY5Y cell line in the phosphorilation of several pathways were assessed using xMAP assay from Luminex. […] The levels of activation are expressed as Median Fluorescence Intensity (MFI).

HSP-27 = test: Luminex signalling assay in SH-SY5Y; assay type: cell-based, human; conditions: G79 100 ng/ml and 20 μg/ml, BDNF 20 ng/ml; 30 min, 1 h, 2 h, 6 h
From the text: as §1, §2, §3

STAT-1 = test: Luminex signalling assay in SH-SY5Y; assay type: cell-based, human; conditions: G79 100 ng/ml and 20 μg/ml, BDNF 20 ng/ml; 30 min, 1 h, 2 h, 6 h
From the text: as §1, §2, §3

ATF-2 = test: Luminex signalling assay in SH-SY5Y; assay type: cell-based, human; conditions: G79 100 ng/ml and 20 μg/ml, BDNF 20 ng/ml; 30 min, 1 h, 2 h, 6 h
From the text: as §1, §2, §3

SH-SY5Y cells = test: Parkinson's disease in vitro model (MPTP stress, MTT); assay type: cell-based, human; conditions: MPTP 100 μM, 24 hrs; pre-treated 3 hours; BDNF 20 ng/ml
Method: The human neuroblastoma cell line SH-SY5Y was maintained in culture with 50% Ham's F12 medium and 50% EMEM medium, supplemented with 10% FBS, […] L-glutamine and 1% penicillin/streptomycin. The cell culture was maintained in a humidified atmosphere of 95% air and CO2 at 37° C.
The SH-SY5Y cells after differentiation to neuronal phenotype with retinoic acid, were pre-treated for 3 hours with the test compounds at different concentrations (20 ng/ml, 100 ng/ml, 2 μg/ml, 20 μg/ml and 50 μg/ml) or BDNF (20 ng/ml) as a positive control. Then 1-methyl-4-phenyl-1,2,3,6-tetrahydropyridine (MPTP) (100 μM) was added and incubated for 24 hrs. The number of surviving cells was determined the day after by 3-(4,5-dimethylthiazol-2-yl)-2,5-diphenyltetrazolium bromide (MTT) assay.

NSC-34 cells = test: In vitro model of ALS, serum deprivation of motoneuron-like cells (MTT); assay type: cell-based, mouse; conditions: BDNF 20 ng/ml; serum deprivation 48 h
Method: Mouse motoneuron-like cells NCS-34 were cultured in DMEM (Gibco) supplemented with 10% heat inactivated FBS and 1% penicillin/streptomycin. The cell culture was maintained in a humidified atmosphere of 95% air and CO2 at 37° C.
The nutritional deprivation stress in motorneurons was conducted as described previously in Masahito T. et al., J. Neuropathol. Exp. Neurol. 65(8):816-825 (2006). To assess the effect of trophic stress condition on ALS, the presence of apoptosis was investigated using serum deprivation. NSC-34 cells were seeded in 24-well poly-lysinated plates at 30,000 cells/well and preincubated for 24 h in DMEM plus 10% FBS with various doses of G79, G80, and G81 (20 ng/ml, 100 ng/ml, 2 μg/ml, 20 μg/ml, 50 μg/ml), and G-CSF (2 μg/ml) or BDNF (20 ng/ml) which both were used as positive controls (Masahito T. et al., ibid; Elliot J. L., Neurobiology of Disease 6:310-320 (1999)). Then, the medium was removed and replaced with fresh DMEM without FBS. After 48 h, cell viability was assayed by MTT assay, as described previously.

B1: BDNF: brain-derived neurotrophic factor, neurotrophin used as positive control (protein, UniProt P23560 19-247, looked up)
Neurotrophic factor BDNF …: APMKEANIRGQGGLAYPGVRTHGTLESVNGPKAGSRGLTSLADTFEHVIEELLDEDQKVRPNEENNKDADLYTSRVMLSSQVPLEPPLLFLLEEYKNYLDAANMSMRVRRHSDPARRGELSVCDSISEWVTAADKKTAVDMSGGTVTVLEKVPVSKGQLKQYFYETKCNPMGYTKEGCRGIDKRHWNSQCRTTQSYVRALTMDSKKRIGWRFIRIDTSCVCTLTIKRGR
With B1 the “JNK phospho-activation (MFI) compared to unstimulated control” value (JNK) was “significant JNK activation at 2 h after treatment”, the “HSP-27 phospho-activation (MFI) compared to unstimulated control” value (HSP-27) was “does not activate HSP-27” and the “STAT-1 phospho-activation (MFI) compared to unstimulated control” value (STAT-1) was “did not activate STAT-1”. The “ATF-2 phospho-activation (MFI) compared to unstimulated control” value (ATF-2) was “significant ATF-2 activation at 2 h after treatment”, the “protection of neuronal cells against MPTP (surviving cells, MTT)” value (SH-SY5Y cells) was “significant protection of neuronal cells” and the “cell viability, percentage relative to the control without stress” value (NSC-34 cells) was 80.62±5.2%.
